Experimental data as given in publication PMC7921634.

How the values were obtained:
[1] = target: S-Trimer (ectodomain of wild-type SARS-CoV-2 Spike protein fused to Trimer-Tag) (SARS-CoV-2 | human) (UniProt P0DTC2); assay: negative-stain electron microscopy; S-Trimer 25 μg/mL in PBS adjusted to pH 5.5; 1% uranyl formate pH 4.0; FEI Tecnai spirit, 120 KeV
[2] = target: ACE2-Fc (soluble human ACE2 fused to human IgG Fc) (human) (UniProt Q9BYF1); assay: BLI; ForteBio Octet QKe; ACE2-Fc (10 µg/mL) immobilized on Protein A biosensors; 2-fold serial dilutions of S-Trimer (22.5–36 µg/mL in PBS); KD by steady state analysis, 1:1 binding model
Chain of ACE2-Fc (soluble human ACE2 fused to human IgG Fc) (human) (Q9BYF1 18-738): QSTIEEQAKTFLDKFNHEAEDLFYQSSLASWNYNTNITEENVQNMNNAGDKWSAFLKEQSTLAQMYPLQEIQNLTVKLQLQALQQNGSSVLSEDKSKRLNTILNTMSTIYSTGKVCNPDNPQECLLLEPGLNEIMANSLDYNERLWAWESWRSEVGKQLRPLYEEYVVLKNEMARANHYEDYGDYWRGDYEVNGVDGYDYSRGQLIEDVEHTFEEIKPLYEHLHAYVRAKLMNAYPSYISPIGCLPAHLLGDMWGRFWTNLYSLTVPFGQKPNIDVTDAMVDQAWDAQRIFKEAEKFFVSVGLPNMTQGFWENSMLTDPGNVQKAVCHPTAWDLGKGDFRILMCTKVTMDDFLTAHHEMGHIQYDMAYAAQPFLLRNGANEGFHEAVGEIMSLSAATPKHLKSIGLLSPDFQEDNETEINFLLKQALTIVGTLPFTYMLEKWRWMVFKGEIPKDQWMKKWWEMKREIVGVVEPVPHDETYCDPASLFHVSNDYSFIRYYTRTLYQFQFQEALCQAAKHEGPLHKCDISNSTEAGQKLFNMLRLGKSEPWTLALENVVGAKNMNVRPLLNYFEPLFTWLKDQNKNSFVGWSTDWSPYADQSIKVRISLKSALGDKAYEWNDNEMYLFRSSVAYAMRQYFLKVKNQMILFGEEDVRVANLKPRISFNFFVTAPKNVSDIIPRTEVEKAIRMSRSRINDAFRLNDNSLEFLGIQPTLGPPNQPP

[3] = target: S-Trimer (ectodomain of wild-type SARS-CoV-2 Spike protein fused to Trimer-Tag) (SARS-CoV-2 | human) (UniProt P0DTC2); assay: SDS-PAGE under non-reducing and reducing conditions

For “S-Trimer (ectodomain of wild-type SARS-CoV-2 Spike protein fused to Trimer-Tag) (from UniProt P0DTC2;P02452)”, which stoichiometry N [1] is on record?
The stoichiometry N was 3.

What about the Kd [2] of the same substance?
Its Kd is 1.33 nM.

What about the stoichiometry N [3] of the same substance?
Its stoichiometry N is 3.
